Key:
[1] = target: TgMyoA (Toxoplasma gondii myosin-A, class XIV myosin) (Toxoplasma gondii (endogenous in RH strain parasites)) (UniProt O00934); assay: co-IP
[2] = target: TgMyoA (Toxoplasma gondii myosin-A, class XIV myosin) (Toxoplasma gondii (endogenous in RH …, UniProt O00934 1-831)); assay: co-IP

Row | Molecule | molar ratio to TgMyoA in the complex [1] | molar ratio to TgMyoA in the complex [2]
1 | TgMLC1 (Toxoplasma gondii myosin light chain-1) (natural protein) | 1.38 | –
2 | TgGAP45 (Toxoplasma gondii gliding-associated protein 45) (natural protein, UniProt Q7Z289 1-245, looked up) MGNACKKNTAKTPTRKEAEDLAEKERQEREAKEKAEAEEKARAEAEKNAADKAEAERRAAEAREREESARKEAEAEAARKAEAEAAEAERLRKEAEKKKAEEAKRKAEEEQRAAAEEAEQRAREEAERRKAEAAAAAERERQMQEALKQEEMSPREKYDKLASPEDSASETTMATQPQKVAEHSSAAVTDRSVVGYTVTPCDMAAIDETAKYLSKRCGCDLGDQHDENECPICRHIDLSDAPLLN | – | 1.31

— paper PMC2172186 (The Journal of Cell Biology, 2004)
